Source: the supplement of paper PMC7877785
± gives the uncertainty stated by the source.

Test: self-splicing fitness, log relative to wild type (ln ratio); higher = more splicing; Tetrahymena group I intron in knt gene, E. coli kanamycin selection, DiMSum; sequences stand for … in CUCUCU…GGAGGGAAAAGUUAUCAGGCAUGCACCUGGUAGCUAGUCUUUAAACCAAUAGAUUGCAUCGGUUUAAAAGGCAAGACCGUCAAAUUGCGGGAAAGGGGUCAACAGCCGUUCAGUACCAAGUCUCAGGGGAAACUUUGAGAUGGCCUUGCAAAGGGUAUGGUAAUAAGCUGACGGACAUGGUCCUAACCACGCAGCCAAGUCCUAAGUCAACAGAUCUUCUGUUGAUAUGGAUGCAGUUCACAGACUAAAUGUCGGUCGGGGAAGAUGUAUUCUUCUCAUAAGAUAUAGUCGGACCUCUCCUUAAUGGGAGCUAGCGGAUGAAGUGAUGCAACACUGGAGCCGCUGGGAACUAAUUUGUAUGCGAAAGUAUAUUGAUUAGUUUUGGAGUACUCGUGGUCG
In short: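 Colonies from six replicate transformations of E. coli BL21(DE3) were pooled and amplicon-sequenced on an Illumina HiSeq 2500. The library placed an intron with all eight P1ex-region nucleotides randomised inside the knt kanamycin-resistance gene on pET-22b(+), and cells grew overnight at 37°C or 30°C on LB agar with or without 25 μg/mL kanamycin (plus 100 μg/mL carbenicillin, 50 μM IPTG, 0.2% rhamnose). Fitness is the DiMSum error-weighted combination of wild-type-normalised replicate fold changes, kanamycin versus none.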

Row | Sequence | self-splicing fitness (ln) (30 °C) | self-splicing fitness (ln) (37 °C)
1 | GAGAAGCAAUAUUACGCGUC | -3.46 ± 0.34 | -2.31 ± 0.33
2 | GAGAAGCAAUAUUACGCUAC | -3.38 ± 0.18 | -1.58 ± 0.18
3 | GAGAAGCAAUAUUACGCUCU | -3.26 ± 0.35 | -2.25 ± 0.44
4 | GAGAAGCAAUAUUACGGACU | -0.326 ± 0.091 | -0.101 ± 0.11
5 | GAGAAGCAAUAUUACGGCAU | -0.391 ± 0.07 | 0.567 ± 0.11
6 | GAGAAGCAAUAUUACGGCUC | – | -2.07 ± 0.21
7 | GAGAAGCAAUAUUACGGGUG | -1.72 ± 0.15 | -1.88 ± 0.14
8 | GAGAAGCAAUAUUACGGUCA | -0.263 ± 0.1 | 0.383 ± 0.12
9 | GAGAAGCAAUAUUACGUAAA | -2.16 ± 0.14 | -0.647 ± 0.17
10 | GAGAAGCAAUAUUACGUCAU | -2.57 ± 0.097 | -0.577 ± 0.089
11 | GAGAAGCAAUAUUACGUCGA | -1.54 ± 0.13 | -1.09 ± 0.14
12 | GAGAAGCAAUAUUACGUCUC | -4.38 ± 0.46 | -2.39 ± 0.24
13 | GAGAAGCAAUAUUACGUGAU | -1.81 ± 0.084 | -0.801 ± 0.11
14 | GAGAAGCAAUAUUACGUGUC | -3.95 ± 0.27 | -2.1 ± 0.33
15 | GAGAAGCAAUAUUACGUUCA | -0.919 ± 0.2 | -0.374 ± 0.22
16 | GAGAAGCAAUAUUACGUUCC | -3.57 ± 0.32 | -1.65 ± 0.29
17 | GAGCAGCAAUAUUACGAAAA | -2.68 ± 0.39 | –
18 | GAGCAGCAAUAUUACGAAUU | -1.95 ± 0.14 | -1.45 ± 0.15
19 | GAGCAGCAAUAUUACGACGC | 0.00947 ± 0.079 | 0.534 ± 0.1
20 | GAGCAGCAAUAUUACGAGAC | -2.97 ± 0.3 | -0.985 ± 0.2
21 | GAGCAGCAAUAUUACGAGGC | -2.67 ± 0.47 | –
22 | GAGCAGCAAUAUUACGCGUC | -3.39 ± 0.29 | -2.8 ± 0.3
23 | GAGCAGCAAUAUUACGCGUU | -3.08 ± 0.12 | -1.32 ± 0.12
24 | GAGCAGCAAUAUUACGCUAA | -1.3 ± 0.15 | -0.144 ± 0.18
25 | GAGCAGCAAUAUUACGCUCG | -2.11 ± 0.33 | -0.285 ± 0.22
26 | GAGCAGCAAUAUUACGGAGU | -3.32 ± 0.26 | -3.07 ± 0.4

Row | Sequence | self-splicing fitness (ln) (30 °C) | self-splicing fitness (ln) (37 °C)
27 | GAGCAGCAAUAUUACGGCCC | -1.51 ± 0.15 | -1.09 ± 0.19
28 | GAGCAGCAAUAUUACGGCCG | -1.05 ± 0.17 | -0.59 ± 0.27
29 | GAGCAGCAAUAUUACGGGCC | -2.94 ± 0.33 | -1.21 ± 0.29
30 | GAGCAGCAAUAUUACGGGCU | -3.92 ± 0.28 | -2.55 ± 0.34
31 | GAGCAGCAAUAUUACGGUAG | -4.29 ± 0.2 | -3.24 ± 0.24
32 | GAGCAGCAAUAUUACGGUCU | -0.727 ± 0.12 | -0.857 ± 0.14
33 | GAGCAGCAAUAUUACGUACG | -3.24 ± 0.21 | -1.38 ± 0.17
34 | GAGCAGCAAUAUUACGUACU | -0.0719 ± 0.068 | -0.502 ± 0.085
35 | GAGCAGCAAUAUUACGUGUA | -2 ± 0.12 | -0.876 ± 0.094
36 | GAGCAGCAAUAUUACGUUGA | -2.38 ± 0.17 | -1.32 ± 0.13
37 | GAGGAGCAAUAUUACGAAAG | – | -2.01 ± 0.33
38 | GAGGAGCAAUAUUACGAAGC | -1.73 ± 0.32 | -2.22 ± 0.4
39 | GAGGAGCAAUAUUACGAAUU | -3.43 ± 0.3 | –
40 | GAGGAGCAAUAUUACGACGC | -0.403 ± 0.15 | 0.209 ± 0.14
41 | GAGGAGCAAUAUUACGAUCG | -2.15 ± 0.22 | -1.2 ± 0.32
42 | GAGGAGCAAUAUUACGCAAC | -2.75 ± 0.38 | –
43 | GAGGAGCAAUAUUACGCAGU | -2.89 ± 0.28 | -3.66 ± 0.42
44 | GAGGAGCAAUAUUACGCGGG | -2.11 ± 0.31 | -2.66 ± 0.34
45 | GAGGAGCAAUAUUACGCUCU | -2.18 ± 0.42 | -1.73 ± 0.47
46 | GAGGAGCAAUAUUACGCUUA | -1.5 ± 0.16 | -1.42 ± 0.21
47 | GAGGAGCAAUAUUACGGAGC | – | -0.748 ± 0.26
48 | GAGGAGCAAUAUUACGGCAU | – | -1.87 ± 0.46
49 | GAGGAGCAAUAUUACGGCCC | -0.89 ± 0.29 | -0.616 ± 0.49
50 | GAGGAGCAAUAUUACGGCGU | -1.72 ± 0.16 | -0.0856 ± 0.14
51 | GAGGAGCAAUAUUACGGGCU | -2.72 ± 0.48 | -1.83 ± 0.29
